*1 amine or outer side, *2 acyl side, *3 side chain or, on linkers, in order; H or OH if unused. Bridges are numbered along the chain shown (N, C = ends). Where no end group is shown, it is not given here. [ ]: non-standard residue; d: D form. TATA = O=C(CC[*:1])N1CN(C(=O)CC[*:2])CN(C(=O)CC[*:3])C1; 2Nal = N[C@@H](Cc1ccc2ccccc2c1)C(=O)O; βAla = NCCC(=O)O; Sar = CNCC(=O)O
Biological target: T1, Human EphA2 (Ecto), C-terminal polyHis (Human, UniProt P29317 24-537)
T1 construct: extracellular domain; R&D systems 3035-A2 or in-house
Assay: FP competition vs Reference Compound C

T1 sequence (P29317 24-537): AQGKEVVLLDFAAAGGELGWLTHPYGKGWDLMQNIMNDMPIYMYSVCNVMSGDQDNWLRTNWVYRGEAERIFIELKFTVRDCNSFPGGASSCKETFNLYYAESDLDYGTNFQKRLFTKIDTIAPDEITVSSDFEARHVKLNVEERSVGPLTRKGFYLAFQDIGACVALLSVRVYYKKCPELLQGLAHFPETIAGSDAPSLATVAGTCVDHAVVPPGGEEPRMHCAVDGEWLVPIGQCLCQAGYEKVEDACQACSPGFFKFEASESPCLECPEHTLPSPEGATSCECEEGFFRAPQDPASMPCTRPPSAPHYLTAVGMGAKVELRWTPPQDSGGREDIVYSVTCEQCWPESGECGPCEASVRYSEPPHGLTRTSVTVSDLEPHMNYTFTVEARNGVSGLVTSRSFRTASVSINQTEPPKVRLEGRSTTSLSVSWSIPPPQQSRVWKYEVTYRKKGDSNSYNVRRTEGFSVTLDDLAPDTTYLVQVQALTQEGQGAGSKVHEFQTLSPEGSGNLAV

| Binder | Ki |
| --- | --- |
| ACRNWGMYCAYPDTICA (linker 2-9-16 via TATA; not fully specified (C-terminus)) [Compound 35] | 282 nM |
| ACGFMGLEPCELFCMPK (linker 2-10-14 via TATA; not fully specified (C-terminus)) [Compound 47] | 185 nM |
| ACGFMGLVPCNVFCA (linker 2-10-14 via TATA; not fully specified (C-terminus)) [Compound 45] | 142 nM |
| ACQSCWAYPDTYCA (linker 2-5-13 via TATA; not fully specified (C-terminus)) [Compound 39] | 321 nM |
| ACPLVNPLCLHPGWTCA (linker 2-9-16 via TATA; not fully specified (C-terminus)) [Compound 64] | 30 nM |
| ACPMVNPLCLHPGWTCA (linker 2-9-16 via TATA) [Compound 97] | 20 nM |
| ACPLVNPLCLEPGWTCA (linker 2-9-16 via TATA; not fully specified (C-terminus)) [Compound 84] | 53.9 nM |
| ACPLVNPLCLHPGWSCA (linker 2-9-16 via TATA; not fully specified (C-terminus)) [Compound 86] | 56.1 nM |
| ACPMVNPLCLHPGWICA (linker 2-9-16 via TATA; not fully specified (C-terminus)) [Compound 53] | 15.4 nM |
| ACPLVNPLCLVPGWSCA (linker 2-9-16 via TATA; not fully specified (C-terminus)) [Compound 57] | 35.4 nM |
| ACPLVNPLCLHPGWRCA (linker 2-9-16 via TATA; not fully specified (C-terminus)) [Compound 55] | 20.6 nM |
| ACPLVNPLCLAPGWTCA (linker 2-9-16 via TATA; not fully specified (C-terminus)) [Compound 82] | 46.2 nM |
| ACPLVNPLCLHPGWICA (linker 2-9-16 via TATA; not fully specified (C-terminus)) [Compound 54] | 15.2 nM |
| ACSSCWAYPDSVCA (linker 2-5-13 via TATA; not fully specified (C-terminus)) [Compound 38] | 400 nM |
| ACPLVNPLCLTPGWTCTNT (linker 2-9-16 via TATA; not fully specified (C-terminus)) [Compound 94] | 13.2 nM |
| ACGFMGLEPCVTYCA (linker 2-10-14 via TATA; not fully specified (C-terminus)) [Compound 43] | 234 nM |
| ACGFMGLEPCELFCA (linker 2-10-14 via TATA; not fully specified (C-terminus)) [Compound 46] | 81.7 nM |
| ACGFMGLEPCEMYCA (linker 2-10-14 via TATA; not fully specified (C-terminus)) [Compound 50] | 140 nM |
| ACGFMGLEPCEMVCA (linker 2-10-14 via TATA; not fully specified (C-terminus)) [Compound 42] | 320 nM |
| ACGFMGLEPCETFCA (linker 2-10-14 via TATA; not fully specified (C-terminus)) [Compound 40] | 188 nM |
| ACGFMGLEPCELVCA (linker 2-10-14 via TATA; not fully specified (C-terminus)) [Compound 44] | 127 nM |
| Ac-CPLVNPLCLHPGWSCRGQ (linker 1-8-15 via TATA; not fully specified (C-terminus); printed as Ac-CPLVNPLCLHPGWSCRGQ) [Compound 88] | 1.64 nM |
| ACVPDRRCAFRDVCLTG (linker 2-8-14 via TATA; not fully specified (C-terminus)) [Compound 28] | 1700 nM |

| Binder | Ki |
| --- | --- |
| ACRGEWGYCAYPDTICA (linker 2-9-16 via TATA; not fully specified (C-terminus)) [Compound 34] | 348 nM |
| HSGCRPDPRCAYMNVCA (linker 4-10-16 via TATA) [Compound 21] | 62.1 nM |
| ACVPDRRCAYMNVCA (linker 2-8-14 via TATA) [Compound 16] | 70 nM |
| ACVPDRRCAFENVCVDH (linker 2-8-14 via TATA; not fully specified (C-terminus)) [Compound 25] | 97.3 nM |
| ESRCSPDARCAYMNVCA (linker 4-10-16 via TATA) [Compound 20] | 57 nM |
| GSGCKPDSRCAYMNVCA (linker 4-10-16 via TATA; not fully specified (C-terminus)) [Compound 22] | 63.2 nM |
| ACPLVNPLCNLPGWTCA (linker 2-9-16 via TATA; not fully specified (C-terminus)) [Compound 56] | 184 nM |
| SRPCVIDSRCAYMNVCA (linker 4-10-16 via TATA) [Compound 19] | 94.8 nM |
| ACVPDRRCAFQDVCDHE (linker 2-8-14 via TATA; not fully specified (C-terminus)) [Compound 27] | 159 nM |
| ACGFMGLVPCELYCADN (linker 2-10-14 via TATA; not fully specified (C-terminus)) [Compound 51] | 84.4 nM |
| ACVPDRRCAFMNVCEDR (linker 2-8-14 via TATA; not fully specified (C-terminus)) [Compound 26] | 39 nM |
| ACTKPTGFCAYPDTICA (linker 2-9-16 via TATA; not fully specified (C-terminus)) [Compound 33] | 268 nM |
| ACPDWGKYCAYPDTICA (linker 2-9-16 via TATA; not fully specified (C-terminus)) [Compound 36] | 160 nM |
| ACGFMGLEPCELYCAHT (linker 2-10-14 via TATA; not fully specified (C-terminus)) [Compound 49] | 144 nM |
| ACMNDWWCAMGWKCA (linker 2-8-14 via TATA) [Compound 15] | 278 nM |
| ETVCLPDSRCAYMNVCA (linker 4-10-16 via TATA; not fully specified (C-terminus)) [Compound 23] | 130 nM |
| ACGFMGLVPCEVHCA (linker 2-10-14 via TATA; not fully specified (C-terminus)) [Compound 41] | 155 nM |
| DLRCGGDPRCAYMNVCA (linker 4-10-16 via TATA) [Compound 18] | 70.8 nM |
| TPRCPLVNPLCLMPGWTCA (linker 4-11-18 via TATA; not fully specified (C-terminus)) [Compound 81] | 9.8 nM |
| ACPLVNPLCLTSGWKCA (linker 2-9-16 via TATA; not fully specified (C-terminus)) [Compound 52] | 115 nM |
| ACPLVNPLCLHPG[2Nal]SCRGQ (linker 2-9-16 via TATA; not fully specified (C-terminus); printed as ACPLVNPLCLHPG(2Nal)SCRGQ) [Compound 93] | 228 nM |
| ACPLVNPLCLEPGWTCAKR (linker 2-9-16 via TATA; not fully specified (C-terminus)) [Compound 85] | 10.9 nM |
| [βAla][Sar][Sar][Sar][Sar][Sar][Sar][Sar][Sar][Sar][Sar]ACVPDRRCAYMNVC (linker 13-19-25 via TATA; not fully specified (C-terminus); printed as (β-Ala)-Sar10-ACVPDRRCAYMNVC) [Compound 17] | 85 nM |

Source: US20240000957A1 (published 2024)
